Laboratory results published in doi:10.1101/2023.10.09.561572.

Target: T1, SERF2 (Homo sapiens) (UniProt P84101)
T1 sequence: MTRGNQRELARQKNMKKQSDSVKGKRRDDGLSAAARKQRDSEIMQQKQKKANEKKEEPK
Test: fluorescence polarization
Details: FP: 20 mM NaPi pH 7.4, 100 mM KCl, 25 C (20-100 nM FAM-RNA or 200 nM AF488-SERF2); NMR: same buffer, 4 C

Row | Substance | Kd
1 | polyG RNA | < 1000 nM
2 | TERRA60 rG4 | < 1000 nM
